The values that follow come from PMC3176292.

Test in all cases: co-IP; LUMIER: Renilla luciferase-Smad3 and Flag-tagged partner co-expressed with constitutively active Alk5 in HEK-293; Flag protein captured from cleared lysate (TNE: 10 mM Tris-HCl pH 7.8, 150 mM NaCl, 1 mM EDTA, 1% Igepal CA-630) on anti-Flag 96-well plates, 2 h at 4 °C; co-precipitated Renilla luciferase activity, TrxGA background subtracted, percent of wild-type Smad3
In test [1] the target is SARA Smad-binding domain (amino acids 665–721) on the 3xFlag-thioredoxin scaffold (UniProt O95405).
Chain of SARA Smad-binding domain (amino acids 665–721) on the 3xFlag-thioredoxin scaffold (O95405 767-823): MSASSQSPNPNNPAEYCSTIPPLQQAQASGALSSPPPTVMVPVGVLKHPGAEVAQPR
Test [2] has as its target Flag-SkiW274E, full length (UniProt P12755).
The target in test [3] is Ski Smad-binding domain (amino acids 2–56) on the 3xFlag-thioredoxin scaffold (UniProt P12755).
Chain of Ski Smad-binding domain (amino acids 2–56) on the 3xFlag-thioredoxin scaffold (P12755 2-56): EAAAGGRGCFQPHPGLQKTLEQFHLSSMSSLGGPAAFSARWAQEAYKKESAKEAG
Test [4] has as its target Flag-Smad3, full length (UniProt P84022).
The target of test [5] is Flag-SARA, full length (UniProt O95405).
Chain of Flag-SARA, full length (O95405 whole entry, the tested form may be a part): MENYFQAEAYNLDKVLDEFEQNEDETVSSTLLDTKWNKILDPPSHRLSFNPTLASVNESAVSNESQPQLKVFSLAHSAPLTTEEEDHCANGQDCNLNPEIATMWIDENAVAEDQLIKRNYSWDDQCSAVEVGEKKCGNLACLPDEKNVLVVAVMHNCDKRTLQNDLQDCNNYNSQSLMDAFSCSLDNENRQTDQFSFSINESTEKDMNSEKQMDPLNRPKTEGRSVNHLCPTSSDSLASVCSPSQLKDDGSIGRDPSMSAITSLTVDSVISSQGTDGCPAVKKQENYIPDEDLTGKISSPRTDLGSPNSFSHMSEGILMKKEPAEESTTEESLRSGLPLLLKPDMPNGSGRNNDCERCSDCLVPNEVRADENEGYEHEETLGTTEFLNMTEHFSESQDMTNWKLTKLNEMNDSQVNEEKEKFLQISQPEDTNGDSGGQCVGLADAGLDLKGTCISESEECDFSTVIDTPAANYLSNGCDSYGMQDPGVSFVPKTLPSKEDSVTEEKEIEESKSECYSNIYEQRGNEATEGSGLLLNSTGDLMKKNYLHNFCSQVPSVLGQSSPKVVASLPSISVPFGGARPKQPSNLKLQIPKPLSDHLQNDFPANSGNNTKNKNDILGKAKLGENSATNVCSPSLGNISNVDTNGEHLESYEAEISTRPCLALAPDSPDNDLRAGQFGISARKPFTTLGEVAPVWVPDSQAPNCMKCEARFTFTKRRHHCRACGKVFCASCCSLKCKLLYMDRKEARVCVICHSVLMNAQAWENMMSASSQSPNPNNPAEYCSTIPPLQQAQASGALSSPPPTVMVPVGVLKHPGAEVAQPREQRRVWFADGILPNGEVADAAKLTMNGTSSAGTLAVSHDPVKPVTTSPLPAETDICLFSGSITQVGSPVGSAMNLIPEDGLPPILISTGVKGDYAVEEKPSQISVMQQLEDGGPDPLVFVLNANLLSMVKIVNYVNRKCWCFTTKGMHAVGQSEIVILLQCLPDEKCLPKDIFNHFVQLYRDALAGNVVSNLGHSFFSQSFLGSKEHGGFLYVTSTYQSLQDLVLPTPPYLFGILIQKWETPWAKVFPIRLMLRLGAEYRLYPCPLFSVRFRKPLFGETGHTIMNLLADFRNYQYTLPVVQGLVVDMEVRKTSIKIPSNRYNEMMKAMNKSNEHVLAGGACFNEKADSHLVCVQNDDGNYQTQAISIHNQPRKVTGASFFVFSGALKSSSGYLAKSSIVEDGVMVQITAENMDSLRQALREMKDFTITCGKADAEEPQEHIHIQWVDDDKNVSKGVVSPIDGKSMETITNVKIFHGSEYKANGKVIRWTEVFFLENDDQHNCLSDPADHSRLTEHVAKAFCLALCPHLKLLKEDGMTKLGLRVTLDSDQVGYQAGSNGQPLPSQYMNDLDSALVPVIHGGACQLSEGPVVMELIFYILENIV
In test [6] the target is Smurf2 Smad-binding domain (amino acids 252–330) on the Flag-thioredoxin scaffold (UniProt Q9HAU4).
Chain of Smurf2 Smad-binding domain (amino acids 252–330) on the Flag-thioredoxin scaffold (Q9HAU4 252-330): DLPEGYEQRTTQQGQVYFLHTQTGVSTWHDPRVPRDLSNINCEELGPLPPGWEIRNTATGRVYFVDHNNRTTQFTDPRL
The target of test [7] is Flag-Smad4, full length (UniProt Q13485).
Chain of Flag-Smad4, full length (Q13485 whole entry, the tested form may be a part): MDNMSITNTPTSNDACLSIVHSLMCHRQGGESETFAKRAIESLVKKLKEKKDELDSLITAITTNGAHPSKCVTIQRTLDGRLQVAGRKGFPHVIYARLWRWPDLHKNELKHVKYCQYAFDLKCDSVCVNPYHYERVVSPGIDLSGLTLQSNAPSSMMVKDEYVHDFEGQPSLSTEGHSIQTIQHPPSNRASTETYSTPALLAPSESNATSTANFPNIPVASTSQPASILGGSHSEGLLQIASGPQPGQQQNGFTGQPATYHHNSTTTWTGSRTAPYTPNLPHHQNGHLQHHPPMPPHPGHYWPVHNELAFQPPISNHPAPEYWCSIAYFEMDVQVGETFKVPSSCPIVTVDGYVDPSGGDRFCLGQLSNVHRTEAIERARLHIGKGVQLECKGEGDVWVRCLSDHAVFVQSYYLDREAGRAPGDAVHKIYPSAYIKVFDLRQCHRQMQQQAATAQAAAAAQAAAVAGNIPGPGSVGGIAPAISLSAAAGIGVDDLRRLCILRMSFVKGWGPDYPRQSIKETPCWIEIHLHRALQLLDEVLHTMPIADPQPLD
For test [8], the target named is SIP1 Smad-binding domain (amino acids 315–487) on the 3xFlag-thioredoxin scaffold (UniProt Q9R0G7).
Chain of SIP1 Smad-binding domain (amino acids 315–487) on the 3xFlag-thioredoxin scaffold (Q9R0G7 315-487): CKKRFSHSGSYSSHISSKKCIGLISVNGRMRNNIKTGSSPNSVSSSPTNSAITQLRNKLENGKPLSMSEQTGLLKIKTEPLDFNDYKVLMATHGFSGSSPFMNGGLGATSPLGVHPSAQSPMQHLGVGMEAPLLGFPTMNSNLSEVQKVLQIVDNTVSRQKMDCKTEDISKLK

Chain of Renilla luciferase-Smad3 Del-PPGY (182–185) (P84022 whole entry): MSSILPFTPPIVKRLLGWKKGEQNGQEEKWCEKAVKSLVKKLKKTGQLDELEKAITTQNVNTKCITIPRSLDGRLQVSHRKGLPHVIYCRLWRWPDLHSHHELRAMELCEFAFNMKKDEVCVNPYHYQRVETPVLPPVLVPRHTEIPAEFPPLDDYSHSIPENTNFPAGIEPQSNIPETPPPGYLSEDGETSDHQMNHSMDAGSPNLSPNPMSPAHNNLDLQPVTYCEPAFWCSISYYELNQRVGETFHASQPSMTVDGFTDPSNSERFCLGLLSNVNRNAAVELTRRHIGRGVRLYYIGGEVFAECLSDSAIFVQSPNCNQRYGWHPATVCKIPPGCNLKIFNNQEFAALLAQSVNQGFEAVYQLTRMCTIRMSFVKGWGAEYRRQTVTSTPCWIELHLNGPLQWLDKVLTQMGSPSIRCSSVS
Chain of Flag-SkiW274E, full length (P12755 whole entry W274E, the tested form may be a part): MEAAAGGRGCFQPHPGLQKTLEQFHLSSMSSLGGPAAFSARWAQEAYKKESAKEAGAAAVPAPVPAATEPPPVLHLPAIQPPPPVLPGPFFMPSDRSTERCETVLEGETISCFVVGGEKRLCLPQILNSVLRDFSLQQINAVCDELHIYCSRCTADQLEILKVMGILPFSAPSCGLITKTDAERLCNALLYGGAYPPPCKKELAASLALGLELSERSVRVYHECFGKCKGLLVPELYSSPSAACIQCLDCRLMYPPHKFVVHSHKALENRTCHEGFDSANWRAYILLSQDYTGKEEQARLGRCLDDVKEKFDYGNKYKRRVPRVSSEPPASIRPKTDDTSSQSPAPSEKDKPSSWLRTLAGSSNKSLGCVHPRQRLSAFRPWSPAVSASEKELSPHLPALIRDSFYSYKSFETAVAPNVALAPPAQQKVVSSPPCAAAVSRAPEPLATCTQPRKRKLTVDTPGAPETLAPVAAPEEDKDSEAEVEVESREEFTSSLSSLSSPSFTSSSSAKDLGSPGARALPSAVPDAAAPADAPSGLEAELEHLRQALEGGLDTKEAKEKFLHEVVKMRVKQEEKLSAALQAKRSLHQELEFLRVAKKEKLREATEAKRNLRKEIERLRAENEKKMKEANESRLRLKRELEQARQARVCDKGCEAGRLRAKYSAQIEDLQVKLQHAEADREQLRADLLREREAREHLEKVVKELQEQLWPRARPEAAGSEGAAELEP
Chain of Flag-Smad3, full length (P84022 whole entry): as the sequence (P84022 whole entry) above

As for “Renilla luciferase-Smad3 Del-PPGY (182–185) (from UniProt P84022 1-425) (natural protein)”, the percent binding relative to wild-type Smad3 came to 129% in test [1]; 83% in test [2]; 160% in test [3]; 86% in test [4]; 158% in test [5]; 3% in test [6]. Further, the percent binding relative to wild-type Smad3 in test [7] turned out to be 120%; in test [8], 200%.
